Kd and stoichiometry N data for two compounds are collected here from paper PMC4475381, “Molecular basis for the recognition of cyclic-di-AMP by PstA, a PII-like signal transduction protein” (MicrobiologyOpen, 2015).

The target in assay [1] is T1, PstA (LmPstA) (Listeria monocytogenes, UniProt Q8Y3Y7, N41A).
T1 construct: gene lmo2692; pstA N41A in pET20b, C-terminal His-tag
The experiment in a line: DRaCALA binding titration with […]-c-di-AMP (saturation not achieved).

Assay [2] has as its target T2, PstA (LmPstA) (Listeria monocytogenes, UniProt Q8Y3Y7, F36A).
T2 construct: gene lmo2692; pstA F36A in pET20b, C-terminal His-tag
The experiment in a line: DRaCALA binding titration with […]-c-di-AMP.

The target in assay [3] is PstA (PII-like signal transduction protein A) from Listeria monocytogenes (Listeria monocytogenes). The experiment in a line: crystal structure; LmPstA (20 mg/mL) cocrystallised with 2.5 mmol/L c-di-AMP; sitting drop, 20°C, 12% PEG3350, 0.1 mol/L sodium malonate pH 4.0; 1.6 Å; trimer in the asymmetric unit.
For assay [4] the target is unchanged. The experiment in a line: SEC; gel filtration column (S-300, GE Healthcare) of purified LmPstA. For orientation: In gel filtration, larger molecules generally elute earlier.
Assay [5] has the same target. The experiment in a line: crystal structure; apo LmPstA (10 mg/mL); sitting drop, 20°C, 20% PEG3350, 0.1 mol/L bis-Tris pH 5.5, 0.1 mol/L ammonium acetate; 2.9 Å; trimer in the asymmetric unit.

As usually defined, the Kd is the constant that tells how readily two partners part at equilibrium. In the case of `Nc1ncnc2c1ncn2[C@@H]1O[C@@H]2COP(=O)(O)O[C@H]3[C@@H](O)[C@H](n4cnc5c(N)ncnc54)O[C@@H]3COP(=O)(O)O[C@H]2[C@H]1O` [c-di-AMP], the Kd at PstA (LmPstA) [1] is approximately 140 µM; on PstA (LmPstA) [2] it was 7 µM.

As usually defined, the stoichiometry N is the number of molecules, sites or subunits per partner or assembly. On to “PstA (PII-like signal transduction protein A) from Listeria monocytogenes (natural protein)”, for which the stoichiometry N in assay [3], in assay [4] and in assay [5] was 3 each time.
